B1: SB06142: L354I/L391V/N413D/M421L/S463P/M517A/H524L (protein)
chain: SAGDMRAANLWPSPLMIKRSKKNSLALSLTADQMVSALLDAEPPILYSEYDPTRPFSEASMMGLLTNLADREIVHMINWAKRVPGFVDLTLHDQVHLLECAWLEILMIGVVWRSMEHPVKLLFAPNLLLDRDQGKCVEGLVEIFDMLLATSSRFRMMNLQGEEFVCLKSIILLNSGVYTFLPSTLKSLEEKDHIHRVLDKITDTLIHLMAKAGLTLQQQHQRLAQLLLILSHIRHASNKGMELLYSMKCKNVVPLYDLLLEAADAHRLHAPTSRGGASVEETDQSHLATAGSTSSHSLQKYYITGEAEGFPATA
B2: SB06136: L384M/L391V/N413D/M421L/S463P/H524L (protein)
chain: SAGDMRAANLWPSPLMIKRSKKNSLALSLTADQMVSALLDAEPPILYSEYDPTRPFSEASMMGLLTNLADRELVHMINWAKRVPGFVDLTLHDQVHLLECAWMEILMIGVVWRSMEHPVKLLFAPNLLLDRDQGKCVEGLVEIFDMLLATSSRFRMMNLQGEEFVCLKSIILLNSGVYTFLPSTLKSLEEKDHIHRVLDKITDTLIHLMAKAGLTLQQQHQRLAQLLLILSHIRHMSNKGMELLYSMKCKNVVPLYDLLLEAADAHRLHAPTSRGGASVEETDQSHLATAGSTSSHSLQKYYITGEAEGFPATA
B3: SB06145: L409V/N413D/Q414E/M421L/S463P/H524L (protein)
chain: SAGDMRAANLWPSPLMIKRSKKNSLALSLTADQMVSALLDAEPPILYSEYDPTRPFSEASMMGLLTNLADRELVHMINWAKRVPGFVDLTLHDQVHLLECAWLEILMIGLVWRSMEHPVKLLFAPNLVLDRDEGKCVEGLVEIFDMLLATSSRFRMMNLQGEEFVCLKSIILLNSGVYTFLPSTLKSLEEKDHIHRVLDKITDTLIHLMAKAGLTLQQQHQRLAQLLLILSHIRHMSNKGMELLYSMKCKNVVPLYDLLLEAADAHRLHAPTSRGGASVEETDQSHLATAGSTSSHSLQKYYITGEAEGFPATA

Tests used:
[1] = following a typical clinical dose of tamoxifen; cited from earlier work
[2] = tested on: NK cells; assay: Validation of ERT2 mutants with mCherry reporter in NK cells; assay type: cell-based; details: primary NK cells
Description: After 10 days of feeder cell activation, NK cells were co-transduced with ERT2 mutant virus and reporter SB01066 virus (Experimental Set-up 1). On Day 2 after transduction, transduced NK cells were treated with endoxifen or 4-OHT at a range of concentrations of 0 nM, 0.01 nM, 0.1 nM, 1 nM, and 10 nM. On Day 4, cells were checked for mCherry expression by flow cytometry.

| Molecule | average peak plasma concentration [1] | 4-OHT concentration at which variant is sensitive [2] [nM] | endoxifen concentration at which variant is sensitive [2] [nM] |
| --- | --- | --- | --- |
| CC/C(=C(\c1ccccc1)c1ccc(OCCN(C)C)cc1)c1ccccc1 [tamoxifen] | approximately 40 ng/mL |  |  |
| B1 |  | 0.1 | 0.1 |
| B2 |  | 0.1 | 0.1 |
| B3 |  | 0.1 | 0.1 |

From US20240226296A9, “ERT2 MUTANTS AND USES THEREOF” (Senti Biosciences, Inc., priority 2021, published 2024)
